From patent US20030203447A1 (XOMA TECHNOLOGY, published 2003)
Numbering of substitutions follows the chain as printed. Values belong to the binder of their own block, whether it stands above or below them.

Assays:
[1] = target: T1, Ep-CAM on the surface of HT-29 human colorectal carcinoma cells (human, UniProt P16422 24-314); assay: competition with 125I-labelled chimeric ING-1 on HT-29 cells
T1 construct: also called Epithelial Cell Adhesion Molecule; Ep-CAM-expressing HT-29 cells
T1 sequence: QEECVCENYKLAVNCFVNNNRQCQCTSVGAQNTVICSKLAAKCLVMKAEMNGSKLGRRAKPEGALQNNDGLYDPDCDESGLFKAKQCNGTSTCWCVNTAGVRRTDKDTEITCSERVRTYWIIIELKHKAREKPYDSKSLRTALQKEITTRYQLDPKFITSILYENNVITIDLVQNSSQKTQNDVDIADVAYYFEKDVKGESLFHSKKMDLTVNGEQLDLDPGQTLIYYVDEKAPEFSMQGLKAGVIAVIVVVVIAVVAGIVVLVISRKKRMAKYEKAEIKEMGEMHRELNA
Source text: (§1) Vectors constructed according to Example 6 encoding human engineered ING-1 light and heavy chain genes, for example, pING1937 (low risk human engineered ING-1) and pING1944 (low plus moderate risk human engineered ING-1) were linearized by XbaI and used to transfect serum-free adapted CHO—K1 followed by selection of G418-resistant transfectants. Protein was purified from shake flask culture supernatants by passage over a protein A column. To evaluate the binding activity of the produced immunoglobulin polypeptides, competition binding assays with the human carcinoma cell line HT-29 were performed. This colorectal carcinoma cell line expresses a molecule known as Ep-CAM on its surface. Ep-CAM is recognized by immunoglobulin polypeptides having the antigen binding specificity of the mouse-human chimeric ING-1 antibody produced by cell line HB 9812 as deposited with the ATCC.
(§2) HTG29 cells were grown to confluency (˜2×10⁵ cells/well) in 96 well plates. Mouse-human chimeric ING-1 was labeled with Na¹²⁵I (Iodo-gen®, Pierce). The competition conditions included in a 100 μl assay volume, 0.1 nM labeled mouse-human chimeric ING-1, 2-fold serial dilutions of unlabeled immunoglobulin polypeptides, for example, as produced by cells transfected with pING1937 and pING1944. […] Labeled cells were removed with NaOH and counted. […]

[2] = target: T1, Ep-CAM on the surface of HT-29 human …; assay: competition with iodinated low risk ING-1 on HT-29 cells
[3] = target: T1, Ep-CAM on the surface of HT-29 human …; assay: competition binding on HT-29 cells
Source text: as §1, §2

B1: mouse-human chimeric ING-1 (antibody, human IgG1, kappa, V domains shown)
VH: QIQLVQSGPELKKPGETVKISCKASGYTFTKYGMNWVKQAPGKGLKWMGWINTYTEEPTYGDDFKGRFAFSLETSASTANLQINNLKSEDTATYFCARFGSAVDYWGQGTSVTVSS
VL: DIVMTQAAFSNPVTLGTSGSISCRSSKSLLHSNGITYLYWYLQKPGQSPQLLIYQMSNLASGVPDRFSSSGSGTDFTLRISRVEAEDVGVYYCAQNLELPRTFGGGTKLEMKR
notes: Variable regions of mouse antibody Br-1 with human constant regions; also called mouse-human chimeric ING-1 antibody produced by cell line HB 9812
binding result [1]: binds

B2: human engineered (low risk) ING-1 (antibody, human IgG1, kappa)
VL: DIVMTQSALSNPVTLGESGSISCRSSKSLLHSNGITYLYWYLQKPGQSPQLLIYQMSNRASGVPDRFSSSGSGTDFTLKISRVEAEDVGVYYCAQNLELPRTFGQGTKLEMKRTVAAPSVFIFPPSDEQLKSGTASVVCLLNNFYPREAKVQWKVDNALQSGNSQESVTEQDSKDSTYSLSSTLTLSKADYEKHKVYACEVTHQGLSSPVTKSFNRGEC
VH: not shown
notes: It carries 6 low risk changes in VL and 13 low risk changes in VH; also called ING-1 (heMab); low risk human engineered ING-1
binding result [1]: binds

B3: modified ING-1 with low risk light chain and low plus moderate risk heavy chain (antibody, human IgG1, kappa)
VL: B2 VL
VH: not shown
binding result [2]: binds

Results, then the binder that gave them:

binding result [2]: binds
B4: modified ING-1 with low plus moderate risk light chain and low risk heavy chain (antibody, human IgG1, kappa)
VL: B2 VL with A8P, N11L, L15P, S18P
VH: not shown

binding result [3]: binds
B5: human engineered (low plus moderate risk) ING-1 (antibody, human IgG1, kappa)
VL: B2 VL with A8P, N11L, L15P, S18P
VH: not shown
notes: Whole IgG built like pING1937 (human kappa and gamma-1 constant regions); It carries 10 low plus moderate risk changes in VL and 20 in VH; also called product of pING1944
